From patent US20110301327A1 (MANNKIND, published 2011)
Read-outs that look alike come from different tables or passages of the source. Values belong to the binder of their own block, whether it stands above or below them. Where no end group is shown, it is not given here. [ ]: non-standard residue; d: D form. Orn = NCCC[C@H](N)C(=O)O; Nva = CCC[C@H](N)C(=O)O

Experiments:
HLA-A*0201 [1] = molecular target: T1, HLA-A*0201 (human); test: T2 cell binding, flow cytometry
T1 construct: Empty class I on TAP-deficient T2 cells, stabilised by the added peptide; also called HLA-A2; MHC class I (A2 allele) on T2 cells

[2] = molecular target: T2, HLA-A*0201 class I monomer (ITOPIA Epitope Discovery System plates); test: iTopia affinity assay
T2 construct: Bought kit; for the PSMA series only HLA-A2 is implied; also called MHC monomer; HLA-A2

[3] = molecular target: T2, HLA-A*0201 class I monomer (ITOPIA …); test: iTopia binding assay
HLA-A*0201 [4] = molecular target: T1, HLA-A*0201; test: T2 cell binding, flow cytometry; remark: listed apart in the source
[5] = molecular target: T2, HLA-A*0201 class I monomer (ITOPIA …); test: iTopia affinity assay (ED50)
HLA-A*0201 [6] = molecular target: T1, HLA-A*0201; test: T2 cell binding, flow cytometry; half-maximal binding

B1: SSX-2 41-50(A42L, Y50(Nle)) (peptide)
peptide: KLSEKIFYVX
modifications: Nle, norleucine, at position 10 (50)
binding result (HLA-A*0201 [1]): binds

B2: PRAME425-433 analog, Ala at PO (peptide)
peptide: SLLQHLIGA
binding result [2]: binds

B3: PRAME425-433 analog, Lys at P1 (peptide)
peptide: KLLQHLIGL
notes: also called Lys P1 analog
binding result [3]: binds

B5: NY-ESO-1 157-165 S157F (peptide)
peptide: FLLMWITQC
notes: also called Substitution of S157 with F
binding result (HLA-A*0201 [1]): binds

B6: NY-ESO-1 157-165 S157K (peptide)
peptide: KLLMWITQC
notes: also called Substitution of S157 with K
binding result (HLA-A*0201 [1]): binds

B8: SSX-2 41-50(A42L, Y50L) (peptide)
peptide: KLSEKIFYVL
binding result (HLA-A*0201 [1]): binds

B10: PRAME425-433 analog, Nva at P2 (peptide)
peptide: S[Nva]LQHLIGL
fold reduction of affinity against the native peptide [5]: ~3 fold

B13: SSX2 41-49 (K41F, A42V, V49M) (peptide)
peptide: FVSEKIFYM
EC50 (HLA-A*0201 [6]): 17.8 µM

B14: SSX2 41-49(A42L, V49I) (peptide)
peptide: KLSEKIFYI
EC50 (HLA-A*0201 [6]): 5.68 µM

B15: SSX2 41-49(V49I) (peptide)
peptide: KASEKIFYI
EC50 (HLA-A*0201 [6]): 14 µM

B16: SSX2 41-49(A42V, V49I) (peptide)
peptide: KVSEKIFYI
EC50 (HLA-A*0201 [6]): 13.9 µM

More lines, now with the values ahead:

binding result (HLA-A*0201 [4]): no binding
B4: SSX2 41-49-NH2 (peptide)
peptide: KASEKIFYX
modifications: C-terminal amide

binding result [3]: binds
B7: PRAME425-433 analog, Hse at P1 (peptide)
peptide: XLLQHLIGL
modifications: Hse (homoserine) at P1

binding result (HLA-A*0201 [1]): binds
B9: SSX-2 41-50(A42L, Y50V) (peptide)
peptide: KLSEKIFYVV

binding result (HLA-A*0201 [1]): binds
B11: SSX-2 41-50(A42L, Y50(Nva)) (peptide)
peptide: KLSEKIFYVX
modifications: Nva, norvaline, at position 10 (50)

binding result [3]: binds
B12: PRAME425-433 analog, Orn at P1 (peptide)
peptide: [Orn]LLQHLIGL
